{
  "source": "patent US7312058B2",
  "about": "“Mutant serine acetyltransferase” (priority 2003, dated 2007)",
  "key": {"[1]": {"tested_on": "E. coli strain MG1655", "experiment": "L-cysteine production by test-tube fermentation of strains carrying a mutant cysE plasmid", "type": "cell-based", "description": "The E. coli strain MG1655 (ATCC47076, ATCC700926) was used as a parental strain for evaluation of effect of enhanced expression of mutant cysE gene on L-cysteine production.\nPlasmids pMW-PompC-cysEX (containing mutant cysEX gene encoding a mutant SAT in which Thr167 is replaced with Ala, which is described in the U.S. Pat. No. 6,218,168) and pMW-PompC-cysE5 were introduced into the E. coli strain MG1655. The resulting strains MG1655/pMW-PompC-cysEX and MG1655/pMW-PompC-cysE5 were cultivated overnight with shaking at 34° C. in 2 ml of nutrient broth supplemented with 100 mg/l of ampicillin. 0.2 ml of the obtained cultures were inoculated into 2 ml of a fermentation medium containing ampicillin (100 mg/l) in 20×200 mm test tubes, and cultivated at 34° C. for 42 hours with a rotary shaker at 250 rpm. The composition of the fermentation medium was the following: 15.0 g/l of (NH4)2SO4, 1.5 g/l of KH2PO4, 1.0 g/l of MgSO4, 20.0 g/l of CaCO3, 0.1 mg/l of thiamine, 1% of LB, 4% of glucose, 300 mg/l of L-methionine and 0.5 g/l of Na2S2O3.\nAfter cultivation, the amount of L-cysteine which had accumulated in the medium was determined by the method described by Gaitonde, M. K. (Biochem. J., 104:2, 627-33 (1967))."}, "[2]": {"tested_on": "serine acetyltransferase (SAT)", "experimental": "Acetyl coenzyme A and other chemicals used were from Sigma Chemical Co. (St. Louis, Mo., USA).\nThe cells were sonicated and the pellet was separated by centrifugation at 13000 rpm. The SAT-containing protein fractions in the resulting supernatant were precipitated by 5 volumes of saturated (NH4)2SO4 and pellets were dissolved in 2 ml of buffer (pH 7.5, 50 mM potassium phosphate and 100 mM KCl). The obtained solution was added to 0.1 ml of reaction mixture (500 mM Tris-HCl (pH 8.5), 5 mM L-serine, 0.1 mM acetyl coenzyme A) and incubated at 37° C. for 10 min. The reaction was stopped by adding 0.3 ml of ethanol followed by centrifugation at 13000 rpm. 0.95 ml of 0.24 mM DTNB (5,5-dithio-bis-2-nitrobenzoate) solution was added to supernatant and mixture was incubated for 15 min. The SAT activity was assayed by measuring the absorbance at 412 nm."}},
  "data": [
    {"substance": "cysE5 (RTRDPARP; randomized region of SAT protein only)", "values": [
      {"measurement": "effect of overexpression on cysteine productivity", "setting": "[1]", "value": "improved cysteine productivity"},
      {"measurement": "Residual activity in presence 25 μM cysteine, %", "setting": "[2]; 25 μM cysteine", "value": 100, "unit": "%"},
      {"measurement": "Specific activity, relative units", "setting": "[2]; protein fraction from LE392 cysE::KmR carrying the plasmid, 5 mM L-serine, 0.1 mM acetyl coenzyme A, 37° C., 10 min", "value": 900, "unit": "relative units"},
      {"measurement": "sensitivity to feedback inhibition by L-cysteine", "setting": "[2]; statement from Table 2 and FIG. 5", "value": "no sensitivity to feedback inhibition by L-cysteine"}
    ]}
  ]
}
